Results as given in IntAct's records for PubMed 11940652.

B1: Serine/threonine-protein kinase STE20 (Saccharomyces cerevisiae), Q03497 (parent)
chain: MSNDPSAVSELPDKDSLDNGISNDNERAMGGNGDGGDGLRLPRTTGTLNVNALQKGTNAAHEAGGYKSMDPAKNAETTNDDDNNVVSLDDPIQFTRVSSSSVISGMSSSMSPHSNIDETKSLEAVTPNINTSNITPDHSADNTFSTINASESDHQFNDTLLSKLSLTDSTETIENNATVKHQQPVASSTVNSNKSSTDIRRATPVSTPVISKPSMTTTPRQINSASHSLSNPKHKQHKPKVKPSKPEAKSKPVSVKKSFPSKNPLKNSSPPKKQTEKSYYSSSSKKRKSGSNSGTLRMKDVFTSFVQNIKRNSQDDKRASSSSNNSSSSSITTALRISTPYNAKHIHHVGVDSKTGEYTGLPEEWEKLLTSSGISKREQQQNMQAVMDIVKFYQDVTETNGEDKMFKTFNTTTGLPGSPQVSTPPANSFNKFPPSTSDSHNYGSRTGTPMSNHVMSPTLNTDSSSANGKFIPSRPAPKPPSSASASAPIIKSPVMNSAANVSPLKQTHAPTTPNRTSPNRSSISRNATLKKEEQPLPPIPPTKSKTSPIISTAHTPQQVAQSPKAPAQETVTTPTSKPAQARSLSKELNEKKREERERRKKQLYAKLNEICSDGDPSTKYANLVKIGQGASGGVYTAYEIGTNVSVAIKQMNLEKQPKKELIINEILVMKGSKHPNIVNFIDSYVLKGDLWVIMEYMEGGSLTDVVTHCILTEGQIGAVCRETLSGLEFLHSKGVLHRDIKSDNILLSMEGDIKLTDFGFCAQINELNLKRTTMVGTPYWMAPEVVSRKEYGPKVDIWSLGIMIIEMIEGEPPYLNETPLRALYLIATNGTPKLKEPENLSSSLKKFLDWCLCVEPEDRASATELLHDEYITEIAEANSSLAPLVKLARLKKVAENMDADEDNDDDNDNEHINKTNNCDDNNDSKETVNLDVTEDDKQK

Variants of: B1
Conditions: with cdc42_yeast CDC42, P19073
cdc42_yeast CDC42, P19073, sequence (P19073 whole entry): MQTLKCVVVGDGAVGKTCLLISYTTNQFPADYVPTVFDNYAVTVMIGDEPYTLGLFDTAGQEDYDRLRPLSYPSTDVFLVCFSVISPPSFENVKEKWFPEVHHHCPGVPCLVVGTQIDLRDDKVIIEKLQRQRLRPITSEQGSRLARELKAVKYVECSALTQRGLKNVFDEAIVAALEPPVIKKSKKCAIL

effect of a mutation on the interaction | Variant
decreasing interaction | S338A;H345G
